Source: IntAct's records for PubMed 21946559

B1: Netrin-G2 (Homo sapiens), Q96CW9 (parent)
chain: MLHLLALFLHCLPLASGDYDICKSWVTTDEGPTWEFYACQPKVMRLKDYVKVKVEPSGITCGDPPERFCSHENPYLCSNECDASNPDLAHPPRLMFDKEEEGLATYWQSITWSRYPSPLEANITLSWNKTVELTDDVVMTFEYGRPTVMVLEKSLDNGRTWQPYQFYAEDCMEAFGMSARRARDMSSSSAHRVLCTEEYSRWAGSKKEKHVRFEVRDRFAIFAGPDLRNMDNLYTRLESAKGLKEFFTLTDLRMRLLRPALGGTYVQRENLYKYFYAISNIEVIGRCKCNLHANLCSMREGSLQCECEHNTTGPDCGKCKKNFRTRSWRAGSYLPLPHGSPNACATAGSFGNCECYGHSNRCSYIDFLNVVTCVSCKHNTRGQHCQHCRLGYYRNGSAELDDENVCIECNCNQIGSVHDRCNETGFCECREGAAGPKCDDCLPTHYWRQGCYPNVCDDDQLLCQNGGTCLQNQRCACPRGYTGVRCEQPRCDPADDDGGLDCDRAPGAAPRPATLLGCLLLLGLAARLGR
partner: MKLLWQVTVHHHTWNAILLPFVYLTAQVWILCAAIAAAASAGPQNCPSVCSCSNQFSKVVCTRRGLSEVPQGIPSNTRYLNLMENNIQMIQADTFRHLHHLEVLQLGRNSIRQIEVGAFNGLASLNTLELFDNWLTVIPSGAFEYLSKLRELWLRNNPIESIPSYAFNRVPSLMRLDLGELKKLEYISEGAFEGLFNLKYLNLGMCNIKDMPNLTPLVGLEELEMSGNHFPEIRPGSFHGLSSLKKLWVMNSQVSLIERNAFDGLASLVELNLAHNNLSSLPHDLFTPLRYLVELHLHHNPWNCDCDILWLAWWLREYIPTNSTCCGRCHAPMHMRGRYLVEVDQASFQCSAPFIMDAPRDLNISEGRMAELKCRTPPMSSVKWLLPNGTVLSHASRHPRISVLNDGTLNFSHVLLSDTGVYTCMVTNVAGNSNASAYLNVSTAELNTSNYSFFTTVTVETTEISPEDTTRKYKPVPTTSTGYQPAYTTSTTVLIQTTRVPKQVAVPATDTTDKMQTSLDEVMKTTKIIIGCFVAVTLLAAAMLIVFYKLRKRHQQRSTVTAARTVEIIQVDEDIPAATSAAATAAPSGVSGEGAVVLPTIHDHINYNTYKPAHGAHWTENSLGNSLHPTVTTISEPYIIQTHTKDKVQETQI
B2: Leucine-rich repeat-containing protein 4 (Homo sapiens), Q9HBW1 (parent)
chain: B1 partner
partner: B1 chain
B3: Netrin-G2 (Homo sapiens), Q96CW9 (parent)
chain: B1 chain
partner: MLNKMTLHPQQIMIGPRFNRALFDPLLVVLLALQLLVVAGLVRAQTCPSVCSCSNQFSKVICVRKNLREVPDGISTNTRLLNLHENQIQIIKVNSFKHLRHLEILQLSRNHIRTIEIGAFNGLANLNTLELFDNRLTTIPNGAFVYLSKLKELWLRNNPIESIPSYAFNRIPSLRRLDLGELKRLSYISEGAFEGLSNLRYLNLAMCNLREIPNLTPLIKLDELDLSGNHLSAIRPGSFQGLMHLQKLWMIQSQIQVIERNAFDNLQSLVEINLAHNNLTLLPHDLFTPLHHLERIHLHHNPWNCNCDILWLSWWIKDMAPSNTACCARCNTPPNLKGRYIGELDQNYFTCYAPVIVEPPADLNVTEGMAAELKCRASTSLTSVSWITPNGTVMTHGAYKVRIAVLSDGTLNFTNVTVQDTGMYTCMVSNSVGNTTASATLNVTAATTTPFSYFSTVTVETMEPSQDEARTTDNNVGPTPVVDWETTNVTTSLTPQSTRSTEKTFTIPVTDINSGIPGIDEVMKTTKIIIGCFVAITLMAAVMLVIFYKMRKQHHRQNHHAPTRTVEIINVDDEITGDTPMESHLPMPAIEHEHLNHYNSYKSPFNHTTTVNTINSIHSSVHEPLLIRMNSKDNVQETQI
B4: Leucine-rich repeat-containing protein 4C (Homo sapiens), Q9HCJ2 (parent)
chain: B3 partner
partner: B1 chain
B5: Netrin-G1 (Homo sapiens), Q9Y2I2 (parent)
chain: MYLSRFLSIHALWVTVSSVMQPYPLVWGHYDLCKTQIYTEEGKVWDYMACQPESTDMTKYLKVKLDPPDITCGDPPETFCAMGNPYMCNNECDASTPELAHPPELMFDFEGRHPSTFWQSATWKEYPKPLQVNITLSWSKTIELTDNIVITFESGRPDQMILEKSLDYGRTWQPYQYYATDCLDAFHMDPKSVKDLSQHTVLEIICTEEYSTGYTTNSKIIHFEIKDRFAFFAGPRLRNMASLYGQLDTTKKLRDFFTVTDLRIRLLRPAVGEIFVDELHLARYFYAISDIKVRGRCKCNLHATVCVYDNSKLTCECEHNTTGPDCGKCKKNYQGRPWSPGSYLPIPKGTANTCIPSISSIGNCECFGHSNRCSYIDLLNTVICVSCKHNTRGQHCELCRLGYFRNASAQLDDENVCIECYCNPLGSIHDRCNGSGFCECKTGTTGPKCDECLPGNSWHYGCQPNVCDNELLHCQNGGTCHNNVRCLCPAAYTGILCEKLRCEEAGSCGSDSGQGAPPHGSPALLLLTTLLGTASPLVF
partner: B1 partner
B6: Leucine-rich repeat-containing protein 4 (Homo sapiens), Q9HBW1 (parent)
chain: B1 partner
partner: B5 chain
B7: Netrin-G1 (Homo sapiens), Q9Y2I2 (parent)
chain: B5 chain
partner: B3 partner
B8: Leucine-rich repeat-containing protein 4C (Homo sapiens), Q9HCJ2 (parent)
chain: B3 partner
partner: B5 chain

Variants of: B1
Details: with lrrc4_human LRRC4, Q9HBW1

Variant | effect of a mutation on the interaction
P74A | disrupting interaction
Y75T | disrupting interaction

Variants of: B2
Details: with ntng2_human NTNG2, Q96CW9

Variant | effect of a mutation on the interaction
G204T | disrupting interaction

Variants of: B3
Details: with lrc4c_human LRRC4C, Q9HCJ2

Variant | effect of a mutation on the interaction
P74A | disrupting interaction
Y75T | disrupting interaction

Variants of: B4
Details: with ntng2_human NTNG2, Q96CW9

Variant | effect of a mutation on the interaction
A205T | disrupting interaction

Variants of: B5
Details: with lrrc4_human LRRC4, Q9HBW1

Variant | effect of a mutation on the interaction
P85A | disrupting interaction
Y86T | disrupting interaction

Variants of: B6
Details: with ntng1_human NTNG1, Q9Y2I2

Variant | effect of a mutation on the interaction
G204T | disrupting interaction

Variants of: B7
Details: with lrc4c_human LRRC4C, Q9HCJ2

Variant | effect of a mutation on the interaction
P85A | disrupting interaction
Y86T | disrupting interaction

Variants of: B8
Details: with ntng1_human NTNG1, Q9Y2I2

Variant | effect of a mutation on the interaction
A205T | disrupting interaction
